This is an account of results in paper PMC7081908.

Several values for one entry are separate records, joined by “and”; a condition that tells them apart may be missing. Equal entries are not always repeated.

This assay deals with IgG-CD4 protein (fusion protein of human CD4 domains 1 and 2 with human IgG1 Fc at the C terminus) (human). Nature of the assay: BLI; Octet QKe; IgG-CD4 loaded onto protein G sensors at 20 ug/ml in ForteBio kinetics buffer; serial dilutions of gp120 (600 nM to 0.4 nM) in solution; Kd = koff/kon, 1:1 fitting model; two GMP lots of each gp120.
Turning to “GMP-grade gp120 protein, HIV-1 clade AE consensus”, the Kd is 0.0246 µM and 0.0184 µM.
For “GMP-grade gp120 protein, HIV-1 clade B isolate JRFL (natural protein)”, the Kd was 0.00744 µM and 0.00487 µM.
As to “GMP-grade gp120 protein, HIV-1 clade C isolate 93MW965.26 (natural protein)”, the Kd is 0.157 µM and 0.115 µM.
